Molecular target: SH2 domain (143-249) of CSRC (UniProt P12931)
Assay: ITC

stoichiometry N: 1
Substance: human calmodulin (from UniProt P0DP23 1-149) (natural protein)

Source: paper PMC4747798
